Results taken from US20240384250A1, “FIBROBLAST GROWTH FACTOR 23 MODULATING COMPOUNDS” (THE UAB RESEARCH FOUNDATION, priority 2021, published 2024).

Legend:
FGF23/FGFR4 binding = target: T1, FGF23/FGFR4 binding (Homo sapiens, UniProt P22455+Q9GZV9, R179Q); assay: Surface plasmon resonance, FGF23 binding to surface FGFR4 with heparin or sKL in solution
T1 construct: Fc-FGFR4 protein (human ectodomain) was immobilized; purchased R&D Systems human FGF23 2604FG025/CF; human FGFR4 685FR050
T1 sequence (Q9GZV9 25-251 R179Q): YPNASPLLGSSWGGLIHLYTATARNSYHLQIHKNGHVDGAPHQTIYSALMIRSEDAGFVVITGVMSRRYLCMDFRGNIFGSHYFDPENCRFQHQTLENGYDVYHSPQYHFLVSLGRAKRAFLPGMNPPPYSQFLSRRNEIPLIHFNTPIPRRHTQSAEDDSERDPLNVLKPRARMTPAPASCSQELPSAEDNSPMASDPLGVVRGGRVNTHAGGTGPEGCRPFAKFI
T1 sequence (P22455 22-369 limits assumed): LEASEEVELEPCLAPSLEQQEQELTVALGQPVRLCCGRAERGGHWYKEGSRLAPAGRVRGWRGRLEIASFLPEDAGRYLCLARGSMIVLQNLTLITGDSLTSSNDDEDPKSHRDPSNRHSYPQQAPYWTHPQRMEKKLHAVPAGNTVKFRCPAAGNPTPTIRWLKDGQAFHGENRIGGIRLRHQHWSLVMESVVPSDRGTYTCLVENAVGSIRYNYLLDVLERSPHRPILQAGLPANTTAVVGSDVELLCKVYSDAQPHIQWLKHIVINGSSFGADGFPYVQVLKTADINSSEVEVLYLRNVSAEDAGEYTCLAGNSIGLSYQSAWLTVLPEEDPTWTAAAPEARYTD
Method: For the direct quantitative analysis of label-free molecular interactions in real time, surface plasmon resonance studies were conducted using BIAcore T200 and T200 evaluation software (28975001, Cytiva). Sensor SA (BR100398) and CMS chips (BR100399) were from Cytiva. For the preparation of heparin chips, heparin (2 mg) and amine-PEG3-Biotin (2 mg, 21347, Pierce) were dissolved in 200 μl of H2O and 10 mg of NaCNBH3 was added. The reaction mixture was heated at 70° C. for 24 hours; an additional 10 mg of NaCNBH3 was added; and the reaction was heated at 70° C. for another 24 hours. After cooling to room temperature, the mixture was desalted with the spin column (3000 MWCO). Biotinylated heparin was collected, freeze dried, and used for chip preparation. Biotinylated heparin was immobilized to streptavidin chips according to the manufacturer's protocol. In brief, 20 μl of biotinylated heparin solution (0.1 mg/ml) in HBS-P running buffer (0.01 M N-2-hydroxyethylpiperazine-N′-2-ethanesulfonic acid, 0.15 M NaCl, 0.005% surfactant P20 [pH7.4]; BR100368, Cytiva) was injected over flow cell 2 of the streptavidin chip at a flow rate of 10 μl/min. The successful immobilization of heparin was confirmed by the observation of an approximately 200-resonance unit increase in the sensor chip. […] The response was monitored as a function of time (sensorgram) at 25° C.

FGF23 and FGFR1c = assay: sKL detection assay (FGF23 coated, Fc-FGFR1c detection); type: binding
Method: Commercially available ELISA plates (Maxisorp) are coated with 5 μg/ml of recombinant FGF23 protein (R&D Systems) and unspecific binding sites are blocked with BSA/Tween20. Wells are incubated with sKL in solution (which can be plasma, serum or cell culture supernatants) for one hour, washed and incubated for one hour with 750 ng/ml of recombinant FGFR1α(IIIc)-Fc (R&D Systems), which is a chimeric protein consisting of the FGFR1 ectodomain and the Fc region of a human IgG. FGFR1 only binds to FGF23 in the presence of sKL, and the formation of this trimeric sandwich complex is then measured by detecting the presence of the Fc domain that is coupled to FGFR1. To do so, wells are washed and incubated with 400 ng/ml of anti-human IgG conjugated to horseradish peroxidase (HRP; Promega). Wells are washed and incubated with HRP substrate. After development for about 30 minutes, reactions are analyzed on a standard plate reader via absorptions at […]. Incubations with recombinant sKL dissolved in PBS at defined concentrations serve as standards that are used as reference values to determine sKL concentrations in the studied human samples. […]
HEK293 cells were plated in 10 cm dishes supplemented with 10% FBS (26140079, Gibco) and I× Pen/Strep (15140122, Gibco). Cells were transfected with appropriate klotho or green fluorescent protein cDNA constructs. After 2 days, clones were selected by using 1 μg/ml of puromycin (A1113803, Gibco). Cells were then split and plated in 10 cm dishes in DMEM supplemented with FBS and puromycin. After 48 hours, cells were lysed in 1 ml of RIPA buffer with the addition of a protease inhibitor (11873580001, Roche) for 30 minutes. The mixture was then centrifuged at 20,000 g for 1 hour to remove all cell debris. Activity assay was run as above in the sKL halflife study. Instead of serum, 20 μl of the indicated cell lysate was used and combined with 80 μl of activity assay buffer.

B1: sKL: recombinant soluble α-klotho ectodomain, mouse aa 35-982 and human aa 34-981, FLAG- or Strep/His-tagged, purified from HEK293 cells (protein)
chain: EPGDGAQTWARFSRPPAPEAAGLFQGTFPDGFLWAVGSAAYQTEGGWQQHGKGASIWDTFTHHPLAPPGDSRNASLPLGAPSPLQPATGDVASDSYNNVFRDTEALRELGVTHYRFSISWARVLPNGSAGVPNREGLRYYRRLLERLRELGVQPVVTLYHWDLPQRLQDAYGGWANRALADHFRDYAELCFRHFGGQVKYWITIDNPYVVAWHGYATGRLAPGIRGSPRLGYLVAHNLLLAHAKVWHLYNTSFRPTQGGQVSIALSSHWINPRRMTDHSIKECQKSLDFVLGWFAKPVFIDGDYPESMKNNLSSILPDFTESEKKFIKGTADFFALCFGPTLSFQLLDPHMKFRQLESPNLRQLLSWIDLEFNHPQIFIVENGWFVSGTTKRDDAKYMYYLKKFIMETLKAIKLDGVDVIGYTAWSLMDGFEWHRGYSIRRGLFYVDFLSQDKMLLPKSSALFYQKLIEKNGFPPLPENQPLEGTFPCDFAWGVVDNYIQVDTTLSQFTDLNVYLWDVHHSKRLIKVDGVVTKKRKSYCVDFAAIQPQIALLQEMHVTHFRFSLDWALILPLGNQSQVNHTILQYYRCMASELVRVNITPVVALWQPMAPNQGLPRLLARQGAWENPYTALAFAEYARLCFQELGHHVKLWITMNEPYTRNMTYSAGHNLLKAHALAWHVYNEKFRHAQNGKISIALQADWIEPACPFSQKDKEVAERVLEFDIGWLAEPIFGSGDYPWVMRDWLNQRNNFLLPYFTEDEKKLIQGTFDFLALSHYTTILVDSEKEDPIKYNDYLEVQEMTDITWLNSPSQVAVVPWGLRKVLNWLKFKYGDLPMYIISNGIDDGLHAEDDQLRVYYMQNYINEALKAHILDGINLCGYFAYSFNDRTAPRFGLYRYAADQFEPKASMKHYRKIIDSNGFPGPETLERFCPEEFTVCTECSFFHTRKS
modifications: left off: small tags and cut ends
notes: recombinant soluble α-klotho ectodomain, mouse aa 35-982 and human aa 34-981, FLAG- or Strep/His-tagged, purified from HEK293 cells
- sKL's effect on increasing FGFR4 affinity for FGF23 relative to heparin (FGF23/FGFR4 binding): 4- to 5 fold
- increase in FGF23/FGFR4 binding affinity (FGF23/FGFR4 binding; heparin or sKL in solution): approximately 13 fold
- binding in the sKL detection assay, total cell lysates (FGF23 and FGFR1c; lysates of stably transfected HEK293T cells): strong signal
- binding activity relative to Com.sKL (FGF23 and FGFR1c; purified proteins): approximately 7 ×
